This experiment deals with KRAS^G12D mutant. Kind of experiment: BLI binding kinetics assay, KRAS G12D mutant. Conditions: protein-protein; BLI (Fig. S5). (In general: In BLI a coated tip is dipped into the sample, and binding shifts an interference pattern.)

B1: GRB10: potential KRAS-interacting protein, UniProt Q13322 (protein, UniProt Q13322 1-594, looked up)
Growth factor receptor-bound …: MALAGCPDSFLHHPYYQDKVEQTPRSQQDPAGPGLPAQSDRLANHQEDDVDLEALVNDMNASLESLYSACSMQSDTVPLLQNGQHARSQPRASGPPRSIQPQVSPRQRVQRSQPVHILAVRRLQEEDQQFRTSSLPAIPNPFPELCGPGSPPVLTPGSLPPSQAAAKQDVKVFSEDGTSKVVEILADMTARDLCQLLVYKSHCVDDNSWTLVEHHPHLGLERCLEDHELVVQVESTMASESKFLFRKNYAKYEFFKNPMNFFPEQMVTWCQQSNGSQTQLLQNFLNSSSCPEIQGFLHVKELGKKSWKKLYVCLRRSGLYCSTKGTSKEPRHLQLLADLEDSNIFSLIAGRKQYNAPTDHGLCIKPNKVRNETKELRLLCAEDEQTRTCWMTAFRLLKYGMLLYQNYRIPQQRKALLSPFSTPVRSVSENSLVAMDFSGQTGRVIENPAEAQSAALEEGHAWRKRSTRMNILGSQSPLHPSTLSTVIHRTQHWFHGRISREESHRIIKQQGLVDGLFLLRDSQSNPKAFVLTLCHHQKIKNFQILPCEDDGQTFFSLDDGNTKFSDLIQLVDFYQLNKGVLPCKLKHHCIRVAL
One may read the Kd as the free concentration of one partner at which half of the binding sites on the other are occupied at equilibrium, for simple one-to-one binding. Low readings indicate a tighter complex, high ones a looser complex. B1 returned a Kd of 51 µM.
